We go through one substance from patent publication US20200095333A1.

Bounds are passed on as bounds.

For the experiment, the target named is human serum albumin (HSA) (human) (UniProt P02768). The experiment can be described thus: HSA binding class, Table 23.

The substance “ABD L64G/I65A/V71A (from UniProt P19909 254-299)” displayed an HSA binding of under 0.1.
